Data published in publication doi:10.1101/2024.12.18.629111 (bioRxiv, 2024).

T1: CBP-Upf1-CH-HD (S. cerevisiae, UniProt P30771 54-851)
T1 sequence (looked up): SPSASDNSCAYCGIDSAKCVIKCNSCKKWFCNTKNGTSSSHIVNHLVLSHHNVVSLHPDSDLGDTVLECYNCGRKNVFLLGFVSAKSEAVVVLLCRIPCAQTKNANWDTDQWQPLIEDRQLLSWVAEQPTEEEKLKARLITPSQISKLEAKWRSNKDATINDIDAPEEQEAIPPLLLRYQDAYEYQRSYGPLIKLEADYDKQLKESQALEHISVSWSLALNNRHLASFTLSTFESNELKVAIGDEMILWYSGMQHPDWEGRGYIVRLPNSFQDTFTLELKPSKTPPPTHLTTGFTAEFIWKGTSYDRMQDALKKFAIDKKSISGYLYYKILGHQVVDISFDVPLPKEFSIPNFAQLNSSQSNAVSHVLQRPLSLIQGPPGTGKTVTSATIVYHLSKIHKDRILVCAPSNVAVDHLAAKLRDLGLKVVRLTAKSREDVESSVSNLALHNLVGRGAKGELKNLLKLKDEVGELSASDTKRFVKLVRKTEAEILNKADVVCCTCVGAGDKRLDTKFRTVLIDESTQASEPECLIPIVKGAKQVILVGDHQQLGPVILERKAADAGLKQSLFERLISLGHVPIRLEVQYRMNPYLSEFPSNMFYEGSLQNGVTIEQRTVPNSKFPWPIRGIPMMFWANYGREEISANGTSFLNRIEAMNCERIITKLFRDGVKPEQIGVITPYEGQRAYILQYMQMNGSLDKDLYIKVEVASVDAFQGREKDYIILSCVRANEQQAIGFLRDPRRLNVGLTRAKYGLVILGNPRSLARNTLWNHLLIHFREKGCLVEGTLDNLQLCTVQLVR

T2: CBP-Upf1-FL (S. cerevisiae, UniProt P30771 1-971)
T2 sequence (looked up): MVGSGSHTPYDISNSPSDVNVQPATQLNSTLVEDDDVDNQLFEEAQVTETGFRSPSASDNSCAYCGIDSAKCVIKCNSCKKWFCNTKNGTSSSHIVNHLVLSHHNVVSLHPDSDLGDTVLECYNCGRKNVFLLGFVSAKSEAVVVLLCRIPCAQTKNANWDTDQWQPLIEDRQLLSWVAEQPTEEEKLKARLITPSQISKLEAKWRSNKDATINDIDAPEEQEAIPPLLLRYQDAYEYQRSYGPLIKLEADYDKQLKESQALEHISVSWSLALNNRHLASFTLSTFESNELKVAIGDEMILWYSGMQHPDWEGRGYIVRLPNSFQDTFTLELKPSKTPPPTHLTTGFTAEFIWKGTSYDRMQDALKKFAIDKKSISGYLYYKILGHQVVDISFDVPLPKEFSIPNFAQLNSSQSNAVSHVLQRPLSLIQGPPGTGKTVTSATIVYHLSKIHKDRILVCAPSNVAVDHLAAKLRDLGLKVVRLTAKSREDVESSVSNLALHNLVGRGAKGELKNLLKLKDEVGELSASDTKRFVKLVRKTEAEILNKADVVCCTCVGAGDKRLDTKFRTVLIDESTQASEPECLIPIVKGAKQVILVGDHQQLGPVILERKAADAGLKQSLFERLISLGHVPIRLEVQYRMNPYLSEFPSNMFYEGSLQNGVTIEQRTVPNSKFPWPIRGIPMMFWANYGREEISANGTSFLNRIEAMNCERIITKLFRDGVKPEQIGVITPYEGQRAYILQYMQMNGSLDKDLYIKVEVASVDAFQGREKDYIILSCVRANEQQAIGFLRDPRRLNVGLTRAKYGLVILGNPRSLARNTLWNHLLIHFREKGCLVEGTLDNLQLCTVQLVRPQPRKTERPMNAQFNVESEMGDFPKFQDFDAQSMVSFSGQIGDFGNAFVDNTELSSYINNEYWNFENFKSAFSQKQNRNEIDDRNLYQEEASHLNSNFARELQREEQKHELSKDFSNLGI

B1: GST-Dcp2-UBD (domain or fragment, S. cerevisiae, UniProt P53550 434-720, looked up)
chain: GYSSSSPGQLLDILNSKKPDSNVQSSKKPKLKILQRGTDLNSIKQNNNDETAHSNSQALLDLLKKPTSSQKIHASKPDTSFLPNDSVSGIQDAEYEDFESSSDEEVETARDERNSLNVDIGVNVMPSEKDSRRSQKEKPRNDASKTNLNASAESNSVEWGPGKSSPSTQSKQNSSVGMQNKYRQEIHIGDSDAYEVFESSSDEEDGKKLEELEQTQDNSKLISQDILKENNFQDGEVPHRDMPTESNKSINETVGLSSTTNTVKKVPKVKILKRGETFASLANDKKA
B2: GST-Dcp2-UBD1 (domain or fragment, S. cerevisiae, UniProt P53550 434-508, looked up)
chain: GYSSSSPGQLLDILNSKKPDSNVQSSKKPKLKILQRGTDLNSIKQNNNDETAHSNSQALLDLLKKPTSSQKIHAS
B3: GST-Ebs1 (aa 1-591) (domain or fragment, S. cerevisiae, UniProt Q03466 1-591, looked up)
chain: MEPSNTQKEDLPTAFNGIKSQLNSILKSNQLFQDYALLNGFLAFVHSKLNAAILTSIESQCGKSFAADLDSFDQSSISSILDFSWESVHYPIFKWFQMWRNYILFEKENKKQQTKFIDFRKMNSKMLKFFKTVQNFYVNVINTVYKKYDISVLLPKRIIQDLKLSDIENTTNVGDILAVKTFNSSSPLAHLIPTLFHRCLLFLGTAYRYKTLLEEISNKYSISNFKKSLDFFRLASLVLPSAGETYSQAGAIFLQTGNLGIAVFNFVKGMMTKMPSPVSIKNFGALMVDNKSSLNRSLHTTIMNTYLQESKGPRTPAKEILEFYFLGLFGSVWSPTSWRDDTKPNQLNNGIKLRHLENALYETMSARYLNNIKTIFHNLIITIGGFHLLLKRRSDVSAKTLKDLRSNELDYLNFAFKYIAHILNDIVKESWSENPEVSEILGMVRIINCWIKANPMVLQYSQSNLEFVNALAYLINDIVKKKPSPSFSITEHIPKRTYWFEEDLMVKGLSFVNFQLSDFDDYEKILEMDHSLDRLIGNPPLCDKLSASSEMLLRLQAVVNISSQLLQNNNCGVEWSDNKSRYIFNKKIGFK
B4: HisSUMO-tagged Ebs1 (aa 1-591) (domain or fragment, S. cerevisiae, UniProt Q03466 1-591, looked up)
chain: B3 chain

What follows are binders tested against T1, CBP-Upf1-CH-HD (assay: pull-down).

Binding result, binds:
B1, B2

Each binder was assayed against T2, CBP-Upf1-FL (assay: pull-down).

Binding result, binds:
B1, B3, B4, B2
